Patent US20170022287A1
Where a chain is given by its changes, count along the chain named.

B1: R13 (antibody, V domains shown)
VH: QVQLVESGGGLVQPGGSLRLSCAASGFTFSYYDIQWVRQAPGKGLEWVSSISPSGQSTYYRREVKGRFTISRDNSKNTLYLQMNSLRAEDTAVYYCARRTGREYGGGWYFDYWGQGTLVTVSS
VL: DIQMTQSPSSLSASVGDRVTITCRASQSISSYLNWYQQKPGKAPKLLIYAASSLQSGVPSRFSGSGSGTDFTLTISSLQPEDFATYYCQQFSRFPLTFGGGTKVEIK
B2: R14 (antibody, V domains shown)
VH: QVQLLESGGGLVQPGGSLRLSCAASGFTFSSYAMSWVRQAPGKGLEWVSAISGSGGSTYYADSVKGRFTISRDNSKNTLYLQMNSLRAEDTAVYYCARDKWYYYPALDYWGQGTLVTVSS
VL: B1 VL with Q89L, F91V, S92Y, F94S
B3: R1 (antibody, V domains shown)
VH: EVQLVQSGAEVKKPGASVKVSCKASGYTFTSYYTHWVRQAPGQGLEWMGIINPSGGSTSYAQKFQGRVTMTRDTSTSTVYMELSSLRSEDTAVYYCARGAPEYSSSSDYWGQGTMVTVSS
VL: QSALTQPASVSGSPGQSITISCTGTSSDVGGYNYVSWYQQHPGKAPKLMIYDVSNRPSGVSNRFSGSKSGNTASLTISGLQAEDEADYYCSSYTSSSTRWVFGGGTKLTVL
B4: R2 (antibody, V domains shown)
VH: EVQLQESGPGLVKPSETLSLTCTVSGGSISSSSYYWGWIRQPPGKGLEWIGSIHYTGSTYYNPSLKSRVTISVDTSKNQFSLKLSSVTAADTAVYYCARLNPSIAARPGAFDIWGQGTMVTVSS
VL: QSVLTQPPSVSAAPGQKVTISCSGSSSNIANNFVSWFQQLPGTAPKLLIYDNNKRPSGIPDRFSGSKSGTSATLGITGLQTGDEADYYCGTWDRSLSAGVFGGGTKVTVL
B5: R8 (antibody, V domains shown)
VH: QVQLQESGPGLVKPSETLSLTCAVSGYSISSGYYWGWIRQPPGKGLEWIGSIYHSGSTYYNPSLKSRVTISVDTSKNQFSLKLSSVTAADTAVYYCARQHSFTRYYGYYYFDYWGQGTTVTVSS
VL: B1 VL with Q89L, F91S, S92D, R93S, F94I
B6: R11 (antibody, V domains shown)
VH: B2 VH
VL: B1 VL

Assays:
CRD1 [1] = assay: ELISA, coated CD137-Fc protein 2 µg/mL, antibody 10 or 5 µg/mL, absorbance 620 nm; Non (uncoated well) 1.146
Sequence of CRD1 (chain, as listed by the source limits assumed): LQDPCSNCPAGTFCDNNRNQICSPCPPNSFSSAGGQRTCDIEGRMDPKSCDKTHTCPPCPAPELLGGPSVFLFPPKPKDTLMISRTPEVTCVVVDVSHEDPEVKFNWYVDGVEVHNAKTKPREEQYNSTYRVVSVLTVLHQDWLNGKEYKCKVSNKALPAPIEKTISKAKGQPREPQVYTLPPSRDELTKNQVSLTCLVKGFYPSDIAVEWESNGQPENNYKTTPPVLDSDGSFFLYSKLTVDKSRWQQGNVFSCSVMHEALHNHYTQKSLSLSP

CRD1-2 [2] = assay: as above
Sequence of CRD1-2 (chain, as listed by the source limits assumed): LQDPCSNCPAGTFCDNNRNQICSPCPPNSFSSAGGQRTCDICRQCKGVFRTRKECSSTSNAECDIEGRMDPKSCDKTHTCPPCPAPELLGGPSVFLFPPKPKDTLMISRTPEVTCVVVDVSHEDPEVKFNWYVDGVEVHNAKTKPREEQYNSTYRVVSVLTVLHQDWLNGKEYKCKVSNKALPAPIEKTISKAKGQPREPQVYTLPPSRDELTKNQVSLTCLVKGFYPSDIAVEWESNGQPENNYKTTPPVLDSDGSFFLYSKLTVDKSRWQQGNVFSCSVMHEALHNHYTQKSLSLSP

CRD2-3 [3] = assay: as above
Sequence of CRD2-3 (chain, as listed by the source limits assumed): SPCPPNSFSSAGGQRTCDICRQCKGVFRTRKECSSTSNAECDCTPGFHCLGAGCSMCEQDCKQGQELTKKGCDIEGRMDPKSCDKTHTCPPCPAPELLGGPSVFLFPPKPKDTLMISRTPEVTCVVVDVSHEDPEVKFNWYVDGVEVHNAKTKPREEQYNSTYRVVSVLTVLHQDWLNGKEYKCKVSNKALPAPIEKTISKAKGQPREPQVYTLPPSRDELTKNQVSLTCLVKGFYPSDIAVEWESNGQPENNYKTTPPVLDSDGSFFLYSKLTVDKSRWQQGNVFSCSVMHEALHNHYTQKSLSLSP

CRD1-3 [4] = assay: as above
Sequence of CRD1-3 (chain, as listed by the source limits assumed): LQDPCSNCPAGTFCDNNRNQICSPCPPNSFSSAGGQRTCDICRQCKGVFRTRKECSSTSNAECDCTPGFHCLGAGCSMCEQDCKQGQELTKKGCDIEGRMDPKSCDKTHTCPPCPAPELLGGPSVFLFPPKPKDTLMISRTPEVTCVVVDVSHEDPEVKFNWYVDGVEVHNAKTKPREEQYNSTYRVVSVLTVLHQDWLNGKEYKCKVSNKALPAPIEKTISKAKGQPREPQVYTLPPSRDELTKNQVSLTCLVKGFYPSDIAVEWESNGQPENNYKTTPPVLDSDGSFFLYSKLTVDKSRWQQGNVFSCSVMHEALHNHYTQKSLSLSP

CRD2-4 [5] = assay: as above
Sequence of CRD2-4 (chain, as listed by the source limits assumed): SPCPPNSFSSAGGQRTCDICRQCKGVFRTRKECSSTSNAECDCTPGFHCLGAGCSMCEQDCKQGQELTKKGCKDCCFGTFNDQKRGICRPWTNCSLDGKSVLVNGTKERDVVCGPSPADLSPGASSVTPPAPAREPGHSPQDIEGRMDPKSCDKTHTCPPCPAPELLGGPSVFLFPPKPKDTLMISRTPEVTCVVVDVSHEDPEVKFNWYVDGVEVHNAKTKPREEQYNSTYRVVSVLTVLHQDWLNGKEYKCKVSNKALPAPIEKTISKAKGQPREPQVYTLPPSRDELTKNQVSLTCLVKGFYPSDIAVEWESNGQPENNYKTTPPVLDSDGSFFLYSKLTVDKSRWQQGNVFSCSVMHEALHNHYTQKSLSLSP

CRD3-4 [6] = assay: as above
Sequence of CRD3-4 (chain, as listed by the source limits assumed): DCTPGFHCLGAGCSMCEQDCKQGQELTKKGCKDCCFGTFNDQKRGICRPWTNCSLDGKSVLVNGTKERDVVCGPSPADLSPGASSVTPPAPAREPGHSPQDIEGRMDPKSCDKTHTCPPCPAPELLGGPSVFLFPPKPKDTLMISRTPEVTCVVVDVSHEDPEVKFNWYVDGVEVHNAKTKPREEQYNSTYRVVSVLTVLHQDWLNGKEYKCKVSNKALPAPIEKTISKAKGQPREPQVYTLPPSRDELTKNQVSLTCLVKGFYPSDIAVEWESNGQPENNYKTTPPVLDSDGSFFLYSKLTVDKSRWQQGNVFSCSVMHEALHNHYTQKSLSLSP

CRD1 [7] = assay: ELISA, coated CD137-Fc protein 2 µg/mL, antibody 10 or 5 µg/mL; absorbance 620 nm divided by that of the uncoated well
CRD1-2 [8] = assay: as above
CRD2-3 [9] = assay: as above
CRD1-3 [10] = assay: as above
CRD2-4 [11] = assay: as above
CRD3-4 [12] = assay: as above
CRD1 [13] = assay: ELISA, coated CD137-Fc protein 2 µg/mL, antibody 10 or 5 µg/mL, absorbance 620 nm; Non (uncoated well) 2.2055
CRD1-2 [14] = assay: as above
CRD2-3 [15] = assay: as above
CRD1-3 [16] = assay: as above
CRD2-4 [17] = assay: as above
CRD3-4 [18] = assay: as above
CRD1-3 [19] = assay: ELISA, coated CD137-Fc protein 2 µg/mL, antibody 10 or 5 µg/mL, absorbance 620 nm; Non (uncoated well) 0.065
[20] = target: full-length human CD137-Fc fusion protein (human); assay: ELISA, coated CD137-Fc protein 2 µg/mL, antibody 10 or 5 µg/mL; absorbance 620 nm divided by that of the uncoated well
Sequence of full-length human CD137-Fc fusion protein (human) (chain, as listed by the source limits assumed): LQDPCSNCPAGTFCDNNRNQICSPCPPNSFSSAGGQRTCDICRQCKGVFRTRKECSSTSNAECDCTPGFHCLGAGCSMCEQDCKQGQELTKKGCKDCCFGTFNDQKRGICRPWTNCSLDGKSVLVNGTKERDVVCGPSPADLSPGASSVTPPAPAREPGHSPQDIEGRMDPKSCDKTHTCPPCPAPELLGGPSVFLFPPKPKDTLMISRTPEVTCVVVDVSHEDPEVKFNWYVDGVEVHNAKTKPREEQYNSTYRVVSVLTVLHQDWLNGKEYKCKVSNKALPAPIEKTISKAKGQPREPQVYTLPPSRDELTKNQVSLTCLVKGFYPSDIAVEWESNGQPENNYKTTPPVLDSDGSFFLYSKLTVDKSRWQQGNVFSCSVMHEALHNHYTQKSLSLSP

[21] = target: full-length human CD137-Fc fusion protein (human); assay: ELISA, coated CD137-Fc protein 2 µg/mL, antibody 10 or 5 µg/mL, absorbance 620 nm; Non (uncoated well) 0.202
CRD2-3 [22] = assay: ELISA, coated CD137-Fc protein 2 µg/mL, antibody 10 or 5 µg/mL, absorbance 620 nm; Non (uncoated well) 1.114
CRD1-3 [23] = assay: as above
CRD2-4 [24] = assay: as above
[25] = target: full-length human CD137-Fc fusion protein (human); assay: as above
CRD3-4 [26] = assay: as above
CRD1 [27] = assay: ELISA, coated CD137-Fc protein 2 µg/mL, antibody 10 or 5 µg/mL, absorbance 620 nm; Non (uncoated well) 2.0265
CRD1-2 [28] = assay: as above
CRD2-3 [29] = assay: as above
CRD1-3 [30] = assay: as above
CRD2-4 [31] = assay: as above
CRD3-4 [32] = assay: as above

| Binder | Ratio with respect to Non-Coating (CRD1 [7]) | Ratio with respect to Non-Coating (CRD1-2 [8]) | Ratio with respect to Non-Coating (CRD2-3 [9]) | Ratio with respect to Non-Coating (CRD1-3 [10]) | Ratio with respect to Non-Coating (CRD2-4 [11]) | Ratio with respect to Non-Coating (CRD3-4 [12]) | Ratio with respect to Non-Coating [20] | further results |
| --- | --- | --- | --- | --- | --- | --- | --- | --- |
| B1 | 0.5 | 0.4 | 0.5 | 0.7 | 0.4 | 0.2 |  | ELISA color development level (CRD1 [1]): 0.601; ELISA color development level (CRD1-2 [2]): 0.45; ELISA color development level (CRD2-3 [3]): 0.555; ELISA color development level (CRD1-3 [4]): 0.787; ELISA color development level (CRD2-4 [5]): 0.455; ELISA color development level (CRD3-4 [6]): 0.26 |
| B2 | 0.7 | 0.8 | 1.2 | 1.1 | 1 | 1.3 |  | ELISA color development level (CRD1 [13]): 1.64; ELISA color development level (CRD1-2 [14]): 1.7; ELISA color development level (CRD2-3 [15]): 2.72; ELISA color development level (CRD1-3 [16]): 2.42; ELISA color development level (CRD2-4 [17]): 2.21; ELISA color development level (CRD3-4 [18]): 2.76 |
| B3 |  |  |  | 7.3 |  |  |  | ELISA color development level (CRD1-3 [19]): 0.473 |
| B4 |  |  |  |  |  |  | 1 | ELISA color development level [21]: 0.205 |
| B5 |  |  | 2.2 | 2 | 2 | 2.3 | 1.9 | ELISA color development level (CRD2-3 [22]): 2.42; ELISA color development level (CRD1-3 [23]): 2.25; ELISA color development level (CRD2-4 [24]): 2.23; ELISA color development level [25]: 2.09; ELISA color development level (CRD3-4 [26]): 2.52 |
| B6 | 0.9 | 0.8 | 1.3 | 1.2 | 1.1 | 1.4 |  | ELISA color development level (CRD1 [27]): 1.82; ELISA color development level (CRD1-2 [28]): 1.69; ELISA color development level (CRD2-3 [29]): 2.73; ELISA color development level (CRD1-3 [30]): 2.45; ELISA color development level (CRD2-4 [31]): 2.3; ELISA color development level (CRD3-4 [32]): 2.88 |
